Reference: paper PMC5499572 (Nucleic Acids Research, 2017)

T1: Rsa1p_(230-381) (S. cerevisiae, UniProt Q08932 230-381)
T1 sequence: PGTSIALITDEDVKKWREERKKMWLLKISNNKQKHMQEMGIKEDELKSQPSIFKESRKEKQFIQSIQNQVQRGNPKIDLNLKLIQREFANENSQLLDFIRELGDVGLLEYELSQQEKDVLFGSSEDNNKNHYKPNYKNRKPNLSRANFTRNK

T2: His6TRX-Rrp9p (S. cerevisiae, UniProt Q06506 1-573)
T2 sequence: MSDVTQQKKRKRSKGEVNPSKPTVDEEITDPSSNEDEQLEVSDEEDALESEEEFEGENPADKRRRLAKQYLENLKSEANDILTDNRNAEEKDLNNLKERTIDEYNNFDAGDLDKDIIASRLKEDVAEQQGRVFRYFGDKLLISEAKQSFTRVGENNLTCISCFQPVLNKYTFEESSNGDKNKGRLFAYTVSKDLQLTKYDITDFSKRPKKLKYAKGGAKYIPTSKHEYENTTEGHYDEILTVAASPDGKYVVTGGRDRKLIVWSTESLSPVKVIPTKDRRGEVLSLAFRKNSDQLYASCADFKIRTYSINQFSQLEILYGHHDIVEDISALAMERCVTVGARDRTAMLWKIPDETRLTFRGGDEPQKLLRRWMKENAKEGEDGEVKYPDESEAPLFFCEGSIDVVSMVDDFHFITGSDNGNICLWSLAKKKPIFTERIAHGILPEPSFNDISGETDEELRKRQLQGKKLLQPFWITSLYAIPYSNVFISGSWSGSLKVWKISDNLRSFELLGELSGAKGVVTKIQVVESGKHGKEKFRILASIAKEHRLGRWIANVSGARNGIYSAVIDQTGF


Key:
Rsa1p_(230-381) = biological target: T1, Rsa1p_(230-381); test: native gel or EMSA
His6TRX-Rrp9p = biological target: T2, His6TRX-Rrp9p; test: native gel or EMSA

Row | binding result (Rsa1p_(230-381)) | binding result (His6TRX-Rrp9p) | Binder
1 | binds | binds | Snu13p (recombinant, wild type) (natural protein) MSAPNPKAFPLADAALTQQILDVVQQAANLRQLKKGANEATKTLNRGISEFIIMAADCEPIEILLHLPLLCEDKNVPYVFVPSRVALGRACGVSRPVIAASITTNDASAIKTQIYAVKDKIETLLI
2 |  | binds | Snu13p variant E72/A (recombinant) (natural protein) MSAPNPKAFPLADAALTQQILDVVQQAANLRQLKKGANEATKTLNRGISEFIIMAADCEPIEILLHLPLLCADKNVPYVFVPSRVALGRACGVSRPVIAASITTNDASAIKTQIYAVKDKIETLLI
